The record followed here is patent US20190233528A1 (published 2019).

B1: P15D02 anti-CD70 scFv-Fc fusion (Fc fusion)
chain: EVQLVQSGAEVKKPGESLKISCKGSGYSFASYWIGWVRQMPGKGLEWMGVIYPGTSETRYSPSFQGQVTISADKSISTAYLQWSSLKASDTAMYYCAKGLSASASGYSFQYWGQGTLVTVSSGGGGSGGGGSGGGGSGGGGSELDIQMTQSPSSLSASVGDRVTITCRASQSIDTYLNWYQQKPGKAPKLLIYSASSLHSGVPSRFSGSGSGTDFTLTISSLQPEDFATYYCQQSYSTTAWTFGQGTKVEIK
notes: scFv-Fc expressed in Expi293; not shown: part of the hinge and Fc from a modified human IgG2
B2: 9E10 anti-CD70 scFv-Fc fusion (Fc fusion)
chain: QVQLVQSGAEVTKPGASVKVSCKASGYTFTSHYIYWVRQAPGQGLEWMGWINPNSGGTNYAQKFQDRVTMARDTSISTAYMELSRLRSDDTAVYYCAKDRKREYYYNFGMDVWGQGTTVTVSAGGGGSGGGGSGGGGSGGGGSDIQMTQSPSSLSASVGDRVILTCQASQDISNYLHWYQQKPGKAPKLLIYDASDLETGVPSRFSGSGSGADFTFTISNLQPEDFATYYCQQYDHLPITFGQGTRLEIK
notes: as for B1
B3: P08G02 anti-CD70 scFv-Fc fusion (Fc fusion)
chain: EVQLVQSGAEVKKPGESLKISCKGSGYTFPSSWIGWVRQMPGKGLEWMGIIYPDTSHTRYSPSFQGQVTISADKSISTAYLQWSSLKASDTAMYYCARASYFDRGTGYSSWWMDVWGQGTLVTVSSGGGGSGGGGSGGGGSGGGGSELDIQMTQSPSSLSASVGDRVTITCRASQSIYDYLHWYQQKPGKAPKLLIYDASNLQSGVPSRFSGSGSGTDFTLTISSLQPEDFATYYCQQSYTTPLFTFGQGTKVEIK
notes: as for B1
B4: 8C8 anti-CD70 scFv-Fc fusion (Fc fusion)
chain: EVQLVESGGGLVKPGGSLRLSCVASGFTFSSYSMNWVRQFPGKGLEWVSSISTSSNYIHYADSLQGRFTISRDNAKNSLYLQMSSLRVEDTAVYYCVRDKGTTLTNWYFDLWGRGTLVTVSSGGGGSGGGGSGGGGSGGGGSDMQMTQSPSSLSASVGDRVTLTCRASQGISNYLAWFQLKPGKVPKLLIYAASTLQSGVPSRFSGSGSGTDFALTISSLQPEDVATYYCQKYNSAPLTFGGGTKVEIK
notes: as for B1
B5: 10A1 anti-CD70 scFv-Fc fusion (Fc fusion)
chain: QVQLQESGPGLVKPSETLSLTCTVSGGSISYYYWTWIRQPPGKGLEWIGHIYYSGSTNYNPSLKSRVTISIDTSKNLFSLKLSSVTAADTAVYYCARAEGSLDAFDFWGQGTMVTVSSGGGGSGGGGSGGGGSGGGGSDIQMTQSPSTLSASVGDRVTITCRASQSISTWLAWYQQKPGKAPKVLIYKASSLESGVPSRFSGSGSGTEFILTINSLQPDDFASYYCQQYKSYSHTFGQGTKLEIK
notes: as for B1
B6: 12D7 anti-CD70 scFv-Fc fusion (Fc fusion)
chain: QVQLVESGGGVVQPGRSLRLSCVASGFTFSDYGIHWVRQAPGMGQEWVAVIWYDGSIKKYSDSVKGRFIISRDNSENTVYLQMNSLRGEDTAIYYCARDEVGTFGAFDFWGQGTKVTVSSGGGGSGGGGSGGGGSGGGGSDIQLTQSPSFLSASVGDRVSITCRASQDISSFLAWYQQKPGKAPVLLIYVASTLQSGVPSRFSGSGSGTEFTLTVSSLQPEDFATYYCQQLHVYPITFGQGTRLEIR
notes: as for B1
B7: 11E1 anti-CD70 scFv-Fc fusion (Fc fusion)
chain: QVQLQESGPGLVKPLQTLSLTCTVSGGSISSDGYYWSWIRQNPGKGLEWIGYMYYSGSTYYNPSLKSRVTISVDTSKNQFSLKLRSVTAADTAVYYCTRDFGWYFDLWGRGTLVTVSSGGGGSGGGGSGGGGSGGGGSDIQMTQSPSSLSASVGDSITITCRASQDIDNYLAWYQQKTGKVPKVLIYAASALQSGVPSRFSGSGSGTDFTLTISSLQPEDVATYYCQNYNSGPRTFGQGTKVEIK
notes: as for B1
B8: 12C4 anti-CD70 scFv-Fc fusion (Fc fusion)
chain: QVQLVQSGAEVKKPGASVKVSCKASGYTFTGYYLHWVRQAPGQGLEWMGWINPNSGGTNYAQKFQGRVTMTRDTSITTAYMELSRLRIDDTAVYYCARDRGVTMIVDGMDDWGQGTTVTVSSGGGGSGGGGSGGGGSGGGGSDIVMTQSPLSLPVTPGEPASISCRSSQSLLHSNGYNYLDWYLQKPGQSPQVLILLGSNRASGVPDRVSASGSGTDFTLKISRMQAEDVGIYYCMQTLQTPFTFGQGTKLEIK
notes: as for B1
B9: P08F08 anti-CD70 scFv-Fc fusion (Fc fusion)
chain: EVQLVQSGAEVKKPGESLKISCKGSGYGFTSYWIGWVRQMPGKGLEWMGIIHPDDSDTKYSPSFQGQVTISADKSISTAYLQWSSLKASDTAMYYCASSYLRGLWGGYFDYWGQGTLVTVSSGGGGSGGGGSGGGGSGGGGSELQSVLTQPPSASGTPGQRVTISCSGSSSNIGSNYVNWYQQLPGTAPKLLIYGDYQRPSGVPDRFSGSKSGTSASLAISGLRSEDEADYYCATRDDSLSGSVVFGTGTKLTVL
notes: as for B1
B10: 11C1 anti-CD70 scFv-Fc fusion (Fc fusion)
chain: QVQLQESGPGLVKPSETLSLNCTVSGGSISYYYWTWIRQPPGKGLEWIGHVIYSGTTNYNPSLKSRVTISVDTSKNQFSLKLNSVTAADTAVYYCVRAEGSLDAFDLWGQGTMVTVSSGGGGSGGGGSGGGGSGGGGSDIQMTQSPSILSASVGDRVTITCRASQSVSSWLAWYQQKPGKAPKVLIYKASSLESGVPSRFSGTGSGTEFTLTISSLQSDDFATYYCQQYNTYSHTFGQGTKLEIK
notes: as for B1
B11: 12D6 anti-CD70 scFv-Fc fusion (Fc fusion)
chain: QVQLQESGPGLVKPSQTLSLTCTVSGGSISSDAYYWSWIRQHPGKGLEWIGYMYYSGITYYNPSLKSRVTISVDTSKNQFSLKLSSVTAADTAVYYCARDFGWYFDLWGRGTLVTVSSGGGGSGGGGSGGGGSGGGGSDIQMTQSPSSLSASVGDRVTITCRASQDISNYLAWYQQKPGKVPKLLIYAASTLHSGVPSRFSGSGSGTDFTLTISSLQPDDFAAYYCQKYNSAPRTFGQGTKVEIK
notes: as for B1
B12: 4F11 anti-CD70 scFv-Fc fusion (Fc fusion)
chain: QVTLKESGPVLVKPTETLTLTCTVSGFSLSNARMGVTWIRQPPGKALEWLAHIFSNDEKSYSTSLKSRLTISKDTSKTQVVLTMTNMDPVDTATYYCARIRDYYDISSYYDYWGQGTLVSVSSGGGGSGGGGSGGGGSGGGGSDIQMTQSPSAMSASVGDRVTITCRASQDISNYLAWFQQKPGKVPKRLIYAASSLQSGVPSRFSGSGSGTEFTLTISSLLPEDFATYYCLQLNSFPFTFGGGTKVEIN
notes: as for B1
B13: 10H10 anti-CD70 scFv-Fc fusion (Fc fusion)
chain: EVQLVESGGGLVQPGGSLRLSCAVSGFTFSNHNIHWVRQAPGKGLEWISYISRSSSTIYYADSVKGRFTISRDNAKNSLYLQMNSLRDEDTAVYYCARDHAQWYGMDVWGQGTTVTVSSGGGGSGGGGSGGGGSGGGGSDIQMTQSPSSVSASVGDRVTITCRASQGISSWLAWYQQKPGKAPKVLIYAASSLQSGVPSRFSGSGSGTDFTLTISSLQPEDFATYYCQQAFSFPFTFGPGTKVDIK
notes: as for B1
B14: P08E02 anti-CD70 scFv-Fc fusion (Fc fusion)
chain: EVQLVQSGAEVKKPGESLKISCKGSGYSFTSSWIGWVRQMPGKGLEWMGIIYPGDSDTRYSPSFQGQVTISADKSISTAYLQWSSLKASDTAMYYCAKGLSQAMTGFGFDYWGQGTLVTVSSGGGGSGGGGSGGGGSGGGGSELDIQMTQSPSSLSASVGDRVTITCRASQSISRYLNWYQQKPGKAPKLLIYAASILQTGVPSRFSGSGSGTDFTLTISSLQPEDFATYYCQQSYSTTMWTFGQGTKVEIK
notes: as for B1

A word on the Kd: it is the equilibrium constant for the complex coming apart. One may read the koff as the rate constant with which the complex falls apart. One may read the kon as a measure of how fast the partners come together.

For this assay, the target named is T1, recombinant human CD70 (AviTag, polyhistidine tag and chicken tenascin trimerization domain fused to the … (chicken; human, UniProt P10039 110-139, limits assumed).
T1 construct: domain: trimerization domain; Expressed in Expi293, purified by IMAC and SEC; Copies 3 is inferred from the trimerization domain; not shown: AviTag; polyhistidine tag
T1 sequence: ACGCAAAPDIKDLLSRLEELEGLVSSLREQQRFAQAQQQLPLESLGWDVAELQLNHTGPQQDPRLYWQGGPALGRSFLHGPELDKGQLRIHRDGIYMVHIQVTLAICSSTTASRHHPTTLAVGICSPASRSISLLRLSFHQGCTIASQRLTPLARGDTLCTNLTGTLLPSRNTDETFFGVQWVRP
Description: SPR (Biacore 8K, 37 C): CD70 captured via anti-AviTag antibody on C1 chip, scFv-Fc as analyte; 1:1 Langmuir fit. The protocol:
The antibody binding kinetics were determined by surface plasmon resonance (Biacore 8K, GE Healthcare Bio-Sciences, Pittsburgh Pa.) at 37° C. in HBS-T+ (0.01 M HEPES pH 7.4, 0.15 M NaCl, 0.05% v/v Tween20, 1 mg/mL BSA). Recombinant human CD70 diluted in HBS-T+ was captured on a C1 chip immobilized with an anti-AviTag™ antibody. Purified anti-CD70 scFv-Fc fusions were serially diluted into HBS-T+, injected at 30 uL/min for 2-4 min, dissociation monitored for 10 min then the surface regenerated with 75 mM phosphoric acid between injections. Buffer cycles were collected for each anti-CD70 scFv-Fc fusion for double-referencing purposes (double-referencing as described in Myszka, D. G. Improving biosensor analysis. J. Mol. Recognit. 12, 279-284 (1999)). Kinetic association rates (kₒₙ) and dissociation rates (koff) were obtained simultaneously by fitting the double-referenced sensorgrams globally to a 1:1 Langmuir with mass transport model using Biacore 8K Evaluation Software (GE Healthcare Bio-Sciences, Pittsburgh Pa.) then used to calculate an equilibrium dissociation constant (KD) from the kinetic rate constants (KD=koff/kₒₙ). The data was fit to a 1:1 steady state affinity model using Biacore 8K Evaluation Software to determine a steady state equilibrium dissociation constant (SS KD) as needed.
(In SPR one partner is held on a chip, and binding of the other changes the refractive index at the surface.)
For B1, the Kd is below 0.3 nM, the koff is below 8.05e-05 s⁻¹, the on-rate (kon) was found to be 286000 M⁻¹ s⁻¹ and the “t1/2” value is above 136 min.
B2: the Kd was determined as 2.6 nM, the koff was 0.00212 s⁻¹, the on-rate constant (kon) is 825000 M⁻¹ s⁻¹ and the “t1/2” value was found to be 5.4 min.
For B3, in that order: 330 nM, 0.00788 s⁻¹, 23900 M⁻¹ s⁻¹ and 1.5 min.
Consider B4, for which the Kd is 15.4 nM, the koff was found to be 0.00159 s⁻¹, the kon turned out to be 103000 M⁻¹ s⁻¹ and the “t1/2” value was 7.3 min.
For B5, in that order: 1.3 nM, 0.000773 s⁻¹, 577000 M⁻¹ s⁻¹ and 14.9 min.
The matching figures for B6: 1.7 nM, 0.000755 s⁻¹, 441000 M⁻¹ s⁻¹ and 15.3 min.
For B7, in that order: 1.7 nM, 0.001 s⁻¹, 578000 M⁻¹ s⁻¹ and 11.6 min.
On to B8, for which the Kd worked out at 0.3 nM, the dissociation rate constant (koff) is 0.000455 s⁻¹, the kon was determined as 1.56e+06 M⁻¹ s⁻¹ and the “t1/2” value was 25.3 min.
For B9, in that order: 10.7 nM, 0.0153 s⁻¹, 1.44e+06 M⁻¹ s⁻¹ and 0.8 min.
The matching figures for B10: 0.8 nM, 0.000186 s⁻¹, 224000 M⁻¹ s⁻¹ and 62.2 min.
The matching figures for B11: 27.3 nM, 0.00194 s⁻¹, 71200 M⁻¹ s⁻¹ and 5.9 min.
On to B12, for which the equilibrium dissociation constant (Kd) is 1.9 nM, the koff came to 0.0016 s⁻¹, the association rate constant (kon) is 825000 M⁻¹ s⁻¹ and the “t1/2” value is 7.2 min.
Regarding B13, the dissociation constant Kd was 69.3 nM, the koff worked out at 0.0032 s⁻¹, the kon came to 46200 M⁻¹ s⁻¹ and the “t1/2” value was 3.6 min.
The matching figures for B14: 5.3 nM, 0.00438 s⁻¹, 823000 M⁻¹ s⁻¹ and 2.6 min.
